Results as given in PMC7092852 (Biochemical and Biophysical Research Communications, 2005).

Biological target: the molecule itself
Test: SEC

B1: 2-helix protein (native single chain NHR + CHR of syncytin, amino acids 349-445) (domain or fragment)
chain: not shown
stoichiometry N: 3
